This note sets out measurements from patent publication US20240270814A1 (published 2024).

Residue numbers refer to the chain shown, from its start.

Holding throughout (experiment): activation reporter or marker
Assay [1] concerns the target T1, p53 R248W peptide on HLA-A*68:01 (human).
T1 peptide: SSCMGGMNWR

The target in assay [2] is T2, p53 wild type (Y220) peptide on HLA-DRB1*04:01 (human).
T2 peptide: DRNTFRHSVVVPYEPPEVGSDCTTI

The target in assay [3] is T3, p53 Y220C peptide on HLA-DRB1*04:01 (human).
T3 peptide: RNTFRHSVVVPCE

B1: 4266-TCR2 (TCR, V domains shown)
Valpha: GQNIDQPTEMTATEGAIVQINCTYQTSGFNGLFWYQQHAGEAPTFLSYNVLDGLEEKGRFSSFLSRSKGYSYLLLKELQMKDSASYLCAVYTGGFKTIFGAGTRLFVKA
Vbeta: EAGVAQSPRYKIIEKRQSVAFWCNPISGHATLYWYQQILGQGPKLLIQFQNNGVVDDSQLPKDRFSAERLKGVDSTLKIQPAKLEDSAVYLCASNLGGGSTDTQYFGPGTRLTVL
B1: the binding result in assay [1] is on record as “recognises”.

B2: 4266-TCR4 (TCR, V domains shown)
Valpha: GQNIDQPTEMTATEGAIVQINCTYQTSGFNGLFWYQQHAGEAPTFLSYNVLDGLEEKGRFSSFLSRSKGYSYLLLKELQMKDSASYLCAVYPGGSQGNLIFGKGTKLSVKP
Vbeta: B1 Vbeta with N95S, G98T
Consider B2, for which, in assay [1], the binding result was “recognises”.

B3: 4266-TCR3 (TCR, V domains shown)
Valpha: B2 Valpha with V90F, P92Y
Vbeta: GAGVSQSPRYKVAKRGQDVALRCDPISGHVSLFWYQQALGQGPEFLTYFQNEAQLDKSGLPSDRFFAERPEGSVSTLKIQRTQQEDSAVYLCASSFGSGSTDTQYFGPGTRLTVL
As to B3, the binding result in assay [1] was “recognises”.

B4: 4259-F6-TCR (TCR, V domains shown)
Valpha: QKEVEQNSGPLSVPEGAIASLNCTYSDRGSQSFFWYRQYSGKSPELIMFIYSNGDKEDGRFTAQLNKASQYVSLLIRDSQPSDSATYLCAWNSGGSNYKLTFGKGTLLTVNP
Vbeta: NAGVTQTPKFRVLKTGQSMTLLCAQDMNHEYMYWYRQDPGMGLRLIHYSVGEGTTAKGEVPDGYNVSRLKKQNFLLGLESAAPSQTSVYFCASSYSQAWGQPQHFGDGTRLSIL
Consider B4, for which the binding result is “no recognition” in assay [2] and “recognises” in assay [3].
